Experimental data as given in patent publication US20220396612A1 (UNIVERSIT DE TOURS, published 2022).
Residue numbers refer to the chain shown, from its start.

T1: virus-like particles (VLPs) of BK polyomavirus VP-1 protein, serotype Ia (BK virus (BKPyV), serotype Ia, UniProt P03088 1-361)
T1 construct: self-assembled native VLPs coated on ELISA plates; also called VLP Ia; BKV VP-1, serotype Ia
T1 chain: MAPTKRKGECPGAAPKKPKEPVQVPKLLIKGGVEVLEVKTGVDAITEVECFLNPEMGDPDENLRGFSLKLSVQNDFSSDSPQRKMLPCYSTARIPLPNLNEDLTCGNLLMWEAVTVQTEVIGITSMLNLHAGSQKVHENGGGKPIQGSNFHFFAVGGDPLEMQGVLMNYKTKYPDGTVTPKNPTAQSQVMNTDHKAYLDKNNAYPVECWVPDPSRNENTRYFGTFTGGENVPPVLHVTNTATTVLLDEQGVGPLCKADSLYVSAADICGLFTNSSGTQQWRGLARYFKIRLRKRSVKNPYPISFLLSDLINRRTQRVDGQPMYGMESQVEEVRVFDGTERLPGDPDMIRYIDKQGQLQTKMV

T2: virus-like particles (VLPs) of BK polyomavirus VP-1 protein, serotype Ib2 (BK virus (BKPyV), serotype Ib2, PA …, UniProt P03088 1-362)
T2 construct: native VLPs; also the immunogen; also called VLP Ib2; BK Ib2
T2 chain: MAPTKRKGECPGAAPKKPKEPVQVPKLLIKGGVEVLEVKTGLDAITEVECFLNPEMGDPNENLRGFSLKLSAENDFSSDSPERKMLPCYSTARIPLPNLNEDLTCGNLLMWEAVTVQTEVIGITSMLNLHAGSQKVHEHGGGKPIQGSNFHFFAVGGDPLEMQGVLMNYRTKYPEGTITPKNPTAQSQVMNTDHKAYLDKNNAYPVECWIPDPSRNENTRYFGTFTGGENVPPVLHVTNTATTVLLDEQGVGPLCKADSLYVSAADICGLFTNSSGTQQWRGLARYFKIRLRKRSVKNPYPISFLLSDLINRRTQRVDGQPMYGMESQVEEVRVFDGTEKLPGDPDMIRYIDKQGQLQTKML

T3: virus-like particles (VLPs) of BK polyomavirus VP-1 protein, serotype II (BK virus (BKPyV), serotype II, UniProt P14996 1-362)
T3 construct: native VLPs; also called VLP II
T3 chain: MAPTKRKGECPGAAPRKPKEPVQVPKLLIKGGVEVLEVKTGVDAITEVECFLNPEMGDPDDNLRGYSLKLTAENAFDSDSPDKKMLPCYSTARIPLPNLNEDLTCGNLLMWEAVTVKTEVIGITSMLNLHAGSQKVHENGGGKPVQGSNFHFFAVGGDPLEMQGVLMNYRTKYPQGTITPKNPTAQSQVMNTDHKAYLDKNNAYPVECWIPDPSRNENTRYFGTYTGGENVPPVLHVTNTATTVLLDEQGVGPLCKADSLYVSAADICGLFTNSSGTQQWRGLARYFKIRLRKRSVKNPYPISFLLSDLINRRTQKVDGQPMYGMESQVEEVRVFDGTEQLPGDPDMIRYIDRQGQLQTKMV

T4: virus-like particles (VLPs) of BK polyomavirus VP-1 protein, serotype III (BK virus (BKPyV), serotype III, UniProt P14996 1-362)
T4 construct: native VLPs; also called VLP III
T4 chain: T3 chain with R16K, N62H, L68Q, K69H, R215K

T5: virus-like particles (VLPs) of BK polyomavirus VP-1 protein, serotype IV (BK virus (BKPyV), serotype IV, UniProt P14996 1-362)
T5 construct: native VLPs; also called VLP IV
T5 chain: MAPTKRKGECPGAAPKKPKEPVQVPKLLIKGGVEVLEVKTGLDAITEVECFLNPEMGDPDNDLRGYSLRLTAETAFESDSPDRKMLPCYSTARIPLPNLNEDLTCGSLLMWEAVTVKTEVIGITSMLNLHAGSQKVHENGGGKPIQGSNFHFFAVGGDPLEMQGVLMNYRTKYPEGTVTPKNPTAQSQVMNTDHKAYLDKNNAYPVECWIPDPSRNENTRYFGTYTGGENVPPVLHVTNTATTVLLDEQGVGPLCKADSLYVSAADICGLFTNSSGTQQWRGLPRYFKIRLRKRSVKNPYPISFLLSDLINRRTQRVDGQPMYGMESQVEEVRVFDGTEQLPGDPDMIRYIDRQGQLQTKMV

B1: monoclonal antibody ‘18A2’ derived from hybridoma 18A2 (antibody, V domains shown)
VH: DVQLQESGPGLVKPSQSLSLTCSVTGYSITSGYYWNWIRQFPGNKLEWMGYISYDGSNNYNPSLKNRISITRDTSKNQFFLKLNSVTTEDTATYYCARWEGTTDYWGQGTTLTVSS
VL: not shown
notes: Mouse hybridoma antibody
B2: monoclonal antibody ‘H6’ secreted by clone BK6A2H6 (antibody, V domains shown)
VH: EVQLQQSGPELVKPGASVKISCKASGYSFTGYFMNWVKQSHGKSLEWIGRINPYNGDTFYNQKFKGKATLTVDKSSSTAHMELLSLTSEDSAVYYCGSYYYGDYFDYWGQGTTLTVSS
VL: SIVMTQIPKFLLVSEGDRVTITCKASQSVSNDVAWYQQKSGQSPKLLIYYASNRYTGVPDRFTGSGYGTDFTFTISTVQAEDLAVYFCQQDYSSPLTFGAGTKLELKR
B3: monoclonal antibody ‘F6’ secreted by clone BK6A2F6 (antibody)
heavy: EVQLQQSGPELVKPGASVKISCKASGYSFTGYFMNWVKQSHGKSLEWIGRINPYNGDTFYNQKFKGKATLTVDKSSSTAHMELLSLTSEDSAVYYCGSYYYGDYFDYWGQGTTLTVSSAKTTPPSVYPLAPGSAAQTNSMVTLGCLVKGYFPEPVTVTWNSGSLSSGVHTFPAVLQSDLYTLSSSVTVPSSTWPSETVTCNVAHPASSTKVDKKIVPRDCGCKPCICTVPEVSSVFIFPPKPKDVLTITLTPKVTCVVVDISKDDPEVQFSWFVDDVEVHTAQTQPREEQFNSTFRSVSELPIMHQDWLNGKEFKCRVNSAAFPAPIEKTISKTKGRPKAPQVYTIPPPKEQMAKDKVSLTCMITDFFPEDITVEWQWNGQPAENYKNTQPIMDTDGSYFVYSKLNVQKSNWEAGNTFTCSVLHEGLHNHHTEKSLSHSPGK
light: […]

Key:
[1] = target: T1, virus-like particles (VLPs) of BK …; assay: ELISA on coated VLP;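 also: hybridoma culture supernatants (mouse antibodies) tested on wells coated with 1 µg/mL VLPs, peroxidase anti-mouse detection with OPD, background from PBS-coated control wells subtracted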
Experimental: (§1) To do this, the VLPs produced were deposited at a concentration of 1 μg/mL in PBS and incubated overnight at +4° C. The wells were then blocked for 1 h at +37° C. with a PBS/FCS (phosphate-buffered saline/fetal calf serum) mixture. After dilution in a dilution buffer containing FCS, PBS and Tween® 20, the various hybridoma culture supernatants were added for 1 h at +37° C. The wells were washed four times in a row with Wash Buffer and a secondary anti-mouse antibody coupled to peroxidase was added to the 1:2000 dilution for 1 h at +37° C. The wells were washed four more times and the substrate (OPD (ortho phenylene diamine)+H₂O₂) was added for 30 min at room temperature. A stop solution (H₂SO₄ 4N) was then added and each well was read by measuring the absorbance at 492 nm with a spectrophotometer. The value obtained for the average of the control wells (PBS in the first step) is subtracted from the optical density values obtained for each well.

[2] = target: T2, virus-like particles (VLPs) of BK …; assay: ELISA on coated VLP;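 also: hybridoma culture supernatants (mouse antibodies) tested on wells coated with 1 µg/mL VLPs, peroxidase anti-mouse detection with OPD, background from PBS-coated control wells subtracted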
Experimental: as §1

[3] = target: T3, virus-like particles (VLPs) of BK …; assay: ELISA on coated VLP;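 also: hybridoma culture supernatants (mouse antibodies) tested on wells coated with 1 µg/mL VLPs, peroxidase anti-mouse detection with OPD, background from PBS-coated control wells subtracted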
Experimental: as §1

[4] = target: T4, virus-like particles (VLPs) of BK …; assay: ELISA on coated VLP;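 also: hybridoma culture supernatants (mouse antibodies) tested on wells coated with 1 µg/mL VLPs, peroxidase anti-mouse detection with OPD, background from PBS-coated control wells subtracted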
Experimental: as §1

[5] = target: T5, virus-like particles (VLPs) of BK …; assay: ELISA on coated VLP
Experimental: as §1

[6] = target: T6, virus-like particles (VLPs) of JC polyomavirus VP-1 protein (JC virus (JCPyV), UniProt P03089 1-354, Assembled into virus-like particles (many VP-1 copies); the letters give one VP-1 chain.); assay: ELISA on coated JCPyV VLPs
T6 construct: Expressed in insect cells by baculovirus; VLPs coated on ELISA plates; also called JCPyV VLPs; JCPyV

[7] = target: T2, virus-like particles (VLPs) of BK …; assay: ELISA on coated VLP (detection limit OD>0.5)
Experimental: as §1

[8] = target: T6, virus-like particles (VLPs) of JC …; assay: ELISA on coated VLP (detection limit OD>0.5)
Experimental: as §1

[9] = target: T1, virus-like particles (VLPs) of BK …; assay: ELISA on not denatured VLP (threshold OD>0.5)
Experimental: (§2) The wells were then blocked for 1 hour at +37° C. with a PBS/SVF mixture. After dilution in a dilution buffer containing SVF, PBS and Tween® 20, the individual culture supernatants or purified antibodies were added for 1 hour at +37° C. The wells were washed four times in a row with Wash Buffer and a secondary anti-mouse peroxidase antibody was added to the 1/2000 dilution for 1 hour at +37° C. The wells were washed again four times in a row and the substrate was added for 30 minutes at room temperature. A stop solution was added and then each well was read by measuring the absorbance at 492 nm with a spectrophotometer. The value obtained for the average of the control wells (PBS in the first step) was subtracted from the optical density values obtained for each well (detection threshold: OD>0.5).

[10] = target: T5, virus-like particles (VLPs) of BK …; assay: ELISA on not denatured VLP (threshold OD>0.5)
Experimental: as §2

T6 sequence (P03089 whole entry): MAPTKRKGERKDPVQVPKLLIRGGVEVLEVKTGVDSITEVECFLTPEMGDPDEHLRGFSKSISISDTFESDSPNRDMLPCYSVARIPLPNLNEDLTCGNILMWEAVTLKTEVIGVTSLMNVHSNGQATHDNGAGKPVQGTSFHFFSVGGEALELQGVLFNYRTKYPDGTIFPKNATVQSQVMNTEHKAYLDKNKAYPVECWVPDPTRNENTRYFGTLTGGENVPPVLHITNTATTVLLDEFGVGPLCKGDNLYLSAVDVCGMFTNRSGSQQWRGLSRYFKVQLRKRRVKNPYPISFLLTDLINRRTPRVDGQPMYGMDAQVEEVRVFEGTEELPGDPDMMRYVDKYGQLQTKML

Row | Binder | OD 492 nm [1] [OD] | OD 492 nm [2] [OD] | OD 492 nm [3] [OD] | OD 492 nm [4] [OD] | OD 492 nm [5] [OD] | binding result [6] | OD 492 nm [7] [OD] | OD 492 nm [8] [OD] | OD 492 nm [9] [OD] | OD 492 nm [10] [OD]
1 | B1 | 2.22 | 3.02 | 1.05 | 0.763 | 1.22 | no binding (tested: detection limit: OD>0.5) | 0.565 | 0.116 | 3.84 | 2.99
2 | B2 | 3.06 | 3.19 | 0.86 | 0.481 | 3.21 | no binding (tested: detection limit: OD>0.5) | 2.97 | 0.013 |  | 
3 | B3 | 3.23 | 2.89 | 1.65 | 0.42 | 3.16 | no binding (tested: detection limit: OD>0.5) | 3 | 0.028 | 3.94 | 0.788
